Patent US12171828B2, “Quil A fraction with low toxicity and use thereof” (Novavax AB, priority 2003, dated 2024)

Tested on: OVA
Experiment: OVA-specific serum antibody ELISA, QWT-iscoms with CT or MPL (Example 7)
Format: in vivo, NMRI mice
Details: 5 μg OVA without adjuvant
Protocol: Sera were collected 3 weeks after priming and 2 weeks after the booster injection.
Serum antibody determination, including total IgG, and subclasses IgG1 and IgG2a, was carried in out in ELISA as described in example 1.

B1: OVA alone: ovalbumin, weak model antigen, given without adjuvant (protein, UniProt P01012 2-386, looked up)
Ovalbumin: GSIGAASMEFCFDVFKELKVHHANENIFYCPIAIMSALAMVYLGAKDSTRTQINKVVRFDKLPGFGDSIEAQCGTSVNVHSSLRDILNQITKPNDVYSFSLASRLYAEERYPILPEYLQCVKELYRGGLEPINFQTAADQARELINSWVESQTNGIIRNVLQPSSVDSQTAMVLVNAIVFKGLWEKAFKDEDTQAMPFRVTEQESKPVQMMYQIGLFRVASMASEKMKILELPFASGTMSMLVLLPDEVSGLEQLESIINFEKLTEWTSSNVMEERKIKVYLPRMKMEEKYNLTSVLMAMGITDVFSSSANLSGISSAESLKISQAVHAAHAEINEAGREVVGSAEAGVDAASVSEEFRADHPFLFCIKHIATNAVLFFGRCVSP
**Q.** Which “serum IgG after booster” value does the source give for B1 here?
**A.** The value was “low serum levels of IgG”.
